According to publication PMC3085893 (European journal of cell biology, 2011):

B1: GFP-AFAP1 (Actin Filament-Associated Protein of 110 kDa) (natural protein, UniProt Q8N556 1-730, looked up)
chain: MEELIVELRLFLELLDHEYLTSTVREKKAVITNILLRIQSSKGFDVKDHAQKQETANSLPAPPQMPLPEIPQPWLPPDSGPPPLPTSSLPEGYYEEAVPLSPGKAPEYITSNYDSDAMSSSYESYDEEEEDGKGKKTRHQWPSEEASMDLVKDAKICAFLLRKKRFGQWTKLLCVIKDTKLLCYKSSKDQQPQMELPLQGCNITYIPKDSKKKKHELKITQQGTDPLVLAVQSKEQAEQWLKVIKEAYSGCSGPVDSECPPPPSSPVHKAELEKKLSSERPSSDGEGVVENGITTCNGKEQVKRKKSSKSEAKGTVSKVTGKKITKIISLGKKKPSTDEQTSSAEEDVPTCGYLNVLSNSRWRERWCRVKDNKLIFHKDRTDLKTHIVSIPLRGCEVIPGLDSKHPLTFRLLRNGQEVAVLEASSSEDMGRWIGILLAETGSSTDPEALHYDYIDVEMSASVIQTAKQTFCFMNRRVISANPYLGGTSNGYAHPSGTALHYDDVPCINGSLKGKKPPVASNGVTGKGKTLSSQPKKADPAAVVKRTGSNAAQYKYGKNRVEADAKRLQTKEEELLKRKEALRNRLAQLRKERKDLRAAIEVNAGRKPQAILEEKLKQLEEECRQKEAERVSLELELTEVKESLKKALAGGVTLGLAIEPKSGTSSPQSPVFRHRTLENSPISSCDTSDTEGPVPVNSAAVLKKSQAAPGSSPCRGHVLRKAKEWELKNGT
B2: GFP-AFAP1L1 (Actin Filament Associated Protein 1 Like 1) (natural protein, human, UniProt Q8TED9 1-768, looked up)
chain: MDRGQVLEQLLPELTGLLSLLDHEYLSDTTLEKKMAVASILQSLQPLPAKEVSYLYVNTADLHSGPSFVESLFEEFDCDLSDLRDMPEDDGEPSKGASPELAKSPRLRNAADLPPPLPNKPPPEDYYEEALPLGPGKSPEYISSHNGCSPSHSIVDGYYEDADSSYPATRVNGELKSSYNDSDAMSSSYESYDEEEEEGKSPQPRHQWPSEEASMHLVRECRICAFLLRKKRFGQWAKQLTVIREDQLLCYKSSKDRQPHLRLALDTCSIIYVPKDSRHKRHELRFTQGATEVLVLALQSREQAEEWLKVIREVSKPVGGAEGVEVPRSPVLLCKLDLDKRLSQEKQTSDSDSVGVGDNCSTLGRRETCDHGKGKKSSLAELKGSMSRAAGRKITRIIGFSKKKTLADDLQTSSTEEEVPCCGYLNVLVNQGWKERWCRLKCNTLYFHKDHMDLRTHVNAIALQGCEVAPGFGPRHPFAFRILRNRQEVAILEASCSEDMGRWLGLLLVEMGSRVTPEALHYDYVDVETLTSIVSAGRNSFLYARSCQNQWPEPRVYDDVPYEKMQDEEPERPTGAQVKRHASSCSEKSHRVDPQVKVKRHASSANQYKYGKNRAEEDARRYLVEKEKLEKEKETIRTELIALRQEKRELKEAIRSSPGAKLKALEEAVATLEAQCRAKEERRIDLELKLVAVKERLQQSLAGGPALGLSVSSKPKSGETANKPQNSVPEQPLPVNCVSELRKRSPSIVASNQGRVLQKAKEWEMKKT

Assays:
GST-Src SH3 domain = GST-Src SH3 domain (UniProt P12931 84-145); experiment: pull-down
GST-cortactin SH3 domain = GST-cortactin SH3 domain (UniProt Q14247 492-550); experiment: pull-down
Chain of GST-cortactin SH3 domain (Q14247 492-550): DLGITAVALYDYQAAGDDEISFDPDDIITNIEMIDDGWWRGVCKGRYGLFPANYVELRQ

Row | Binder | fold increase in the ratio pulled down over GST control (GST-Src SH3 domain) [fold] | fold increase in the ratio pulled down over GST control (GST-cortactin SH3 domain) [fold]
1 | B1 | 14 | 
2 | B2 |  | ~9
